Source: publication PMC8547954, “Myopalladin knockout mice develop cardiac dilation and show a maladaptive response to mechanical pressure overload” (eLife, 2021)

Key:
Settings in all cases: both partners purified
[1] = target: T1, human MYPN C-terminal region including three Ig domains (MYPN C-term; Res. 813-1320), N-terminal 6xHis-tag (human, UniProt Q86TC9-1 813-1320, NT-647 dye via NHS-driven amino coupling (only where it was the labelled partner, Figure 1C)); experiment: MST; 400 nM NT-647-labelled MYPN C-term titrated with titin Ig Z4-Z5; 30 min at room temperature in 20 mM Tris-HCl pH 8, 150 mM NaCl, 5 mM EDTA, 4 mM DTT; Hill fit; full saturation reached; apparent
T1 construct: Unlabelled in assay a3, labelled with NT-647 in assay a4; also called MYPN C-terminal fragment; MYPN C-terminal domain; source: E. coli BL21-CodonPlus (DE3)-RIPL, purified (HisTrap, Superdex 75 SEC)
T1 sequence (looked up): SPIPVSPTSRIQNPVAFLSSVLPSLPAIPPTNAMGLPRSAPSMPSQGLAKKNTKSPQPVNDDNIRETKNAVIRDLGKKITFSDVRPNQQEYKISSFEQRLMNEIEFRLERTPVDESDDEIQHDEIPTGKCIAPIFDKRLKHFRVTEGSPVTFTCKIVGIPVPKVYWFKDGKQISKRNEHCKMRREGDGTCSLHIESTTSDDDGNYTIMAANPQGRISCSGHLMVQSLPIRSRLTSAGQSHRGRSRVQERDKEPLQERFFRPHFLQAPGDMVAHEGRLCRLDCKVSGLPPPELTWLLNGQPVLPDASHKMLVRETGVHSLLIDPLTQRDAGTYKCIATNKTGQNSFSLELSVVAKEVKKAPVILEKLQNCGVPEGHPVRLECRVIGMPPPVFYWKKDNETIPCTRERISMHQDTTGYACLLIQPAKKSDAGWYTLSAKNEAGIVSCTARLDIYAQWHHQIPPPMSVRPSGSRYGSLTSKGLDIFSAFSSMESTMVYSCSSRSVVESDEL

[2] = target: T1, human MYPN C-terminal region including …; experiment: MST; 450 nM NT-647-labelled titin Ig Z4-Z5 titrated with MYPN (up to 20 µM) or PALLD (up to 30 µM) C-term; 30 min at room temperature in 20 mM Tris-HCl pH 8, 150 mM NaCl, 5 mM EDTA, 4 mM DTT; Hill fit; saturation not reached, Kd could not be unequivocally determined; apparent
[3] = target: T2, PALLD C-terminal region (PALLD C-term; Res. 794-1123), N-terminal 6xHis-tag followed by a human rhinovirus 3C … (human, UniProt Q8WX93-9 794-1123); experiment: as above
T2 construct: numbers count on: NM_001166108.1; A 3C protease site follows the tag; also called homologous fragment of PALLD; PALLD C-terminal domain; source: E. coli BL21-CodonPlus (DE3)-RIPL, purified (HisTrap, Superdex 75 SEC)
T2 sequence (looked up): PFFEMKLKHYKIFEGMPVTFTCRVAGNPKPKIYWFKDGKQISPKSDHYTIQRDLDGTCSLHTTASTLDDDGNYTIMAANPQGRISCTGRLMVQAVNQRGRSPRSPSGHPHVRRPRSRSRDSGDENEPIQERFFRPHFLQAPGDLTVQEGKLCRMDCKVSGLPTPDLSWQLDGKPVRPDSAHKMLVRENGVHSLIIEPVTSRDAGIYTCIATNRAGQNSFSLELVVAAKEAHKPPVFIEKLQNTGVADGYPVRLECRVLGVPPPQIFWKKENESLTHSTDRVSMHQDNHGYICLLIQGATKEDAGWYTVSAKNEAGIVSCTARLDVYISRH

Kd [1]: 2.8 ± 0.5 µM
Kd [2]: 7.2 ± 2.6 µM
Kd [3]: 6.1 ± 0.8 µM
B1: titin Ig domains Z4-Z5 (Res. 942-1173), N-terminal 6xHis-tag (domain or fragment, human, UniProt Q8WZ42-1 942-1173, looked up)
chain: PPTLVSGLKNVTVIEGESVTLECHISGYPSPTVTWYREDYQIESSIDFQITFQSGIARLMIREAFAEDSGRFTCSAVNEAGTVSTSCYLAVQVSEEFEKETTAVTEKFTTEEKRFVESRDVVMTDTSLTEEQAGPGEPAAPYFITKPVVQKLVEGGSVVFGCQVGGNPKPHVYWKKSGVPLTTGYRYKVSYNKQTGECKLVISMTFADDAGEYTIVVRNKHGETSASASLLE
modifications: NT-647 dye via NHS-driven amino coupling (only where it was the labelled partner, Figure 1B)
notes: titin, human, Ig domains Z4-Z5, residues 942-1173 of NM_001256850.1; Labelled with NT-647 in assay a3, unlabelled in assay a4; also called titin Ig domain Z4-Z5 peptide; titin Ig domain Z4-Z5 fragment; source: E. coli BL21-CodonPlus (DE3)-RIPL, purified (HisTrap, Superdex 75 SEC)
